Measured values as given in the supplement of paper PMC7877785.
± gives the uncertainty stated by the source.

Experiment: self-splicing fitness, log relative to wild type (ln ratio); higher = more splicing; Tetrahymena group I intron in knt gene, E. coli kanamycin selection, DiMSum; sequences stand for … in CUCUCU…GGAGGGAAAAGUUAUCAGGCAUGCACCUGGUAGCUAGUCUUUAAACCAAUAGAUUGCAUCGGUUUAAAAGGCAAGACCGUCAAAUUGCGGGAAAGGGGUCAACAGCCGUUCAGUACCAAGUCUCAGGGGAAACUUUGAGAUGGCCUUGCAAAGGGUAUGGUAAUAAGCUGACGGACAUGGUCCUAACCACGCAGCCAAGUCCUAAGUCAACAGAUCUUCUGUUGAUAUGGAUGCAGUUCACAGACUAAAUGUCGGUCGGGGAAGAUGUAUUCUUCUCAUAAGAUAUAGUCGGACCUCUCCUUAAUGGGAGCUAGCGGAUGAAGUGAUGCAACACUGGAGCCGCUGGGAACUAAUUUGUAUGCGAAAGUAUAUUGAUUAGUUUUGGAGUACUCGUGGUCG
Method in brief: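 A randomised library covering all eight P1ex-region intron nucleotides was built with the intron in the knt kanamycin-resistance gene on pET-22b(+) and held in E. coli BL21(DE3). Cells were grown overnight at 37°C or 30°C on LB agar, with or without 25 μg/mL kanamycin, plus 100 μg/mL carbenicillin, 50 μM IPTG and 0.2% rhamnose, and pooled colonies were amplicon-sequenced on an Illumina HiSeq 2500. DiMSum fitness is the error-weighted combination of wild-type-normalised replicate fold changes, kanamycin versus none.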

Row | Sequence | self-splicing fitness (ln) (30 °C) | self-splicing fitness (ln) (37 °C)
1 | CAUGAGCAAUAUUACGGUAC | -2.67 ± 0.41 | -2.32 ± 0.34
2 | CUAUAGCAAUAUUACGGAGA | -2.82 ± 0.3 | -1.38 ± 0.33
3 | AAAUAGCAAUAUUACGGAGU | -3.7 ± 0.2 | -2.61 ± 0.15
4 | ACGGAGCAAUAUUACGUCAC | -3.48 ± 0.31 | -2.42 ± 0.45
5 | ACCGAGCAAUAUUACGGAGC | -3.33 ± 0.18 | -1.73 ± 0.13
6 | AAGGAGCAAUAUUACGUCCU | -2.6 ± 0.25 | -2.27 ± 0.31
7 | AUUGAGCAAUAUUACGAUAU | -2.76 ± 0.18 | -1.04 ± 0.17
8 | CGCGAGCAAUAUUACGGAAG | -1.78 ± 0.17 | -2.32 ± 0.2
9 | UUCCAGCAAUAUUACGACAG | -1.39 ± 0.17 | -0.449 ± 0.18
10 | CUACAGCAAUAUUACGCGGU | -3.49 ± 0.3 | -2.17 ± 0.28
11 | CUGAAGCAAUAUUACGCCUU | -4.07 ± 0.33 | -2.33 ± 0.31
12 | AGGCAGCAAUAUUACGCAAG | -1.22 ± 0.072 | -0.387 ± 0.098
13 | GAAUAGCAAUAUUACGAUAG | -0.707 ± 0.15 | -1.47 ± 0.22
14 | GCAGAGCAAUAUUACGGCUG | -2.42 ± 0.25 | 
15 | AGAGAGCAAUAUUACGCCGG | -1.82 ± 0.25 | 
16 | GCUGAGCAAUAUUACGGACG | -0.688 ± 0.1 | -0.674 ± 0.11
17 | GGUUAGCAAUAUUACGCCGG | -2.48 ± 0.5 | -3.55 ± 0.42
18 | AAUCAGCAAUAUUACGUUGC | -3.97 ± 0.23 | -3.16 ± 0.22
19 | ACACAGCAAUAUUACGUAGC | -3.75 ± 0.14 | -2.11 ± 0.12
20 | UCUAAGCAAUAUUACGAGAC | -1.53 ± 0.12 | -2.52 ± 0.2
21 | ACCUAGCAAUAUUACGCCGC | -2.21 ± 0.32 | -2.05 ± 0.4
22 | UAUGAGCAAUAUUACGGCAG | -1.5 ± 0.25 | -0.674 ± 0.27
23 | AAUCAGCAAUAUUACGUCAG | -1.86 ± 0.12 | -0.81 ± 0.12
24 | CAAGAGCAAUAUUACGUUUA | -2.84 ± 0.26 | -1.61 ± 0.23
25 | CUUCAGCAAUAUUACGAGUC |  | -2.56 ± 0.18
26 | GUUAAGCAAUAUUACGCACA | -0.425 ± 0.09 | -0.0375 ± 0.11

Row | Sequence | self-splicing fitness (ln) (30 °C) | self-splicing fitness (ln) (37 °C)
27 | GCGGAGCAAUAUUACGCUUG | -3.14 ± 0.24 | -1.06 ± 0.2
28 | CAUCAGCAAUAUUACGAUUU | -0.551 ± 0.071 | 0.205 ± 0.1
29 | ACCAAGCAAUAUUACGCUGU | -1.61 ± 0.067 | -0.313 ± 0.074
30 | CACUAGCAAUAUUACGCGCA | -2.52 ± 0.16 | -1.85 ± 0.2
31 | UGUUAGCAAUAUUACGGUUU | -2.82 ± 0.15 | -2.02 ± 0.15
32 | AAUUAGCAAUAUUACGGUAU | -1.29 ± 0.097 | -0.598 ± 0.11
33 | CAUCAGCAAUAUUACGCGGG | -2.04 ± 0.13 | -0.735 ± 0.12
34 | CAUCAGCAAUAUUACGCAUC | -1.34 ± 0.13 | -1.02 ± 0.15
35 | CGCUAGCAAUAUUACGUCCG | -0.673 ± 0.092 | -0.4 ± 0.11
36 | AGGAAGCAAUAUUACGCUCC | -1.87 ± 0.31 | 
37 | CACUAGCAAUAUUACGCAGU | -4.15 ± 0.42 | -2.78 ± 0.33
38 | CGUUAGCAAUAUUACGAACC | -0.385 ± 0.069 | -0.0684 ± 0.073
39 | GGGUAGCAAUAUUACGAAAA | -0.788 ± 0.35 | 
40 | AAUAAGCAAUAUUACGCGGG | -2.62 ± 0.13 | -1.35 ± 0.14
41 | UUCUAGCAAUAUUACGGUUU | -2.05 ± 0.11 | -1.52 ± 0.12
42 | GUCUAGCAAUAUUACGAUAU | -0.897 ± 0.12 | -0.0984 ± 0.12
43 | CCAUAGCAAUAUUACGUACC | -3.95 ± 0.47 | -2.21 ± 0.36
44 | CAGUAGCAAUAUUACGAAUA | -4.27 ± 0.43 | -1.71 ± 0.2
45 | UUUUAGCAAUAUUACGUUAU | -2.53 ± 0.25 | -1.73 ± 0.35
46 | CGAGAGCAAUAUUACGUGUC | -3.05 ± 0.14 | -2.17 ± 0.16
47 | CUUAAGCAAUAUUACGUAAC | -3.05 ± 0.24 | -1.26 ± 0.2
48 | AUAUAGCAAUAUUACGUCGA | -2.07 ± 0.17 | -1.51 ± 0.2
49 | CAACAGCAAUAUUACGGGAC | -4.18 ± 0.17 | -2.99 ± 0.16
50 | UUUGAGCAAUAUUACGAGAA |  | -2.17 ± 0.46
51 | CUGUAGCAAUAUUACGCGAA | -1.86 ± 0.35 | -2.26 ± 0.45
52 | GUUCAGCAAUAUUACGGGAU | -2.24 ± 0.18 | -1.58 ± 0.35

Row | Sequence | self-splicing fitness (ln) (30 °C) | self-splicing fitness (ln) (37 °C)
53 | AAAAAGCAAUAUUACGAAAA | -2.26 ± 0.17 | -0.664 ± 0.14
54 | CGCAAGCAAUAUUACGCGAG | -3.98 ± 0.31 | -2.43 ± 0.3
55 | UGGUAGCAAUAUUACGAUCC | -0.523 ± 0.11 | -0.731 ± 0.16
56 | UGGGAGCAAUAUUACGGGAU | -3.11 ± 0.37 | -2.17 ± 0.29
57 | AGUGAGCAAUAUUACGUCUC |  | -2.46 ± 0.36
58 | GGCGAGCAAUAUUACGUGGU | -4.31 ± 0.27 | -1.77 ± 0.16
59 | CAAAAGCAAUAUUACGGCCG | 0.257 ± 0.11 | 0.574 ± 0.16
60 | CAUUAGCAAUAUUACGCCAA | -2.88 ± 0.33 | -2.63 ± 0.48
61 | CAUAAGCAAUAUUACGGAGC | -3.94 ± 0.29 | -3.35 ± 0.22
62 | GCGAAGCAAUAUUACGUCUA | -1.16 ± 0.1 | -1.3 ± 0.093
63 | GACCAGCAAUAUUACGGUGG | -2.38 ± 0.077 | -0.875 ± 0.087
64 | CCCUAGCAAUAUUACGAACG | -3 ± 0.21 | -2.59 ± 0.29
65 | AUUUAGCAAUAUUACGAGGA | -2.7 ± 0.49 | -2.18 ± 0.4
66 | GUAUAGCAAUAUUACGGUGC | -2.45 ± 0.23 | -1.76 ± 0.36
67 | UUGAAGCAAUAUUACGCUCC | -4.04 ± 0.29 | -3.02 ± 0.31
68 | UGGCAGCAAUAUUACGUGGC | -3.92 ± 0.18 | -2.72 ± 0.19
69 | AAACAGCAAUAUUACGCGUU | -3.11 ± 0.11 | -1.1 ± 0.1
70 | AAAAAGCAAUAUUACGUUUC | -2.04 ± 0.13 | -3.26 ± 0.28
71 | AUACAGCAAUAUUACGCGAA | -1.42 ± 0.12 | -0.301 ± 0.12
72 | CCGAAGCAAUAUUACGCCUG | -1.04 ± 0.094 | -1.17 ± 0.11
73 | ACGUAGCAAUAUUACGUUGU | -3.07 ± 0.11 | -2.01 ± 0.14
74 | UCACAGCAAUAUUACGAGAG | -3.55 ± 0.16 | -2.63 ± 0.19
75 | UUAUAGCAAUAUUACGGCUC | -2.3 ± 0.26 | -0.637 ± 0.26
76 | UCGCAGCAAUAUUACGCCAU |  | -1.96 ± 0.4
77 | CGGUAGCAAUAUUACGGACA | -1.91 ± 0.32 | -1.34 ± 0.29
